Reference: JP2020188737A

Key:
[1] = target: ヒトFcγRIIIaを固定化した担体(分離剤)を詰めたカラム(FcR9_Fカラム、WO2018/150973号の実施例5に記載); assay: FcγRIIIa affinity chromatography (FcR9_F column), peak area share; antibody from 9-day jar fermenter batch culture with 1 mM L-glutamine
[2] = target: ヒトFcγRIIIaを固定化した担体(分離剤)を詰めたカラム(FcR9_Fカラム、WO2018/150973号の実施例5に記載); assay: FcγRIIIa affinity chromatography (FcR9_F column), peak area share; antibody from 9-day jar fermenter batch culture with 10 mM L-glutamine

B1: 抗インターロイキン6レセプター(IL−6R)抗体 (antibody, human IgG1, V domains shown)
VH: QVQLQESGPGLVRPSQTLSLTCTVSGYSITSDHAWSWVRQPPGRGLEWIGYISYSGITTYNPSLKSRVTMLRDTSKNQFSLRLSSVTAADTAVYYCARSLARTTAMDYWGQGSLVTVSS
VL: DIQMTQSPSSLSASVGDRVTITCRASQDISSYLNWYQQKPGKAPKLLIYYTSRLHSGVPSRFSGSGSGTDFTFTISSLQPEDIATYYCQQGNTLPYTFGQGTKVEIK
Question: Which results are given for B1?
Answer: ピーク1(結合力が弱いピーク)の面積割合 [1]: 25%; ピーク3(結合力が強いピーク)の面積割合 [1]: 36%; ピーク1(結合力が弱いピーク)の面積割合 [2]: 42.3%; ピーク3(結合力が強いピーク)の面積割合 [2]: 22.1%
